The values that follow come from publication PMC3035459 (Nucleic Acids Research, 2010).

As usually defined, the stoichiometry N is the number of molecules, sites or subunits per partner or assembly.

The series concerns the molecule itself. The experiment in a line: crystal structure.

B1: Methanocaldococcus jannaschii O-phosphoseryl-tRNA kinase (enzyme, UniProt Q58933 1-248, looked up)
chain: MLIILTGLPGVGKSTFSKNLAKILSKNNIDVIVLGSDLIRESFPVWKEKYEEFIKKSTYRLIDSALKNYWVIVDDTNYYNSMRRDLINIAKKYNKNYAIIYLKASLDVLIRRNIERGEKIPNEVIKKMYEKFDEPGKKYKWDEPFLIIDTTKDIDFNEIAKKLIEKSKEIPKFYVLEENKNKNNNISDKIDKETRKIVSEYIKSKKLDKDKIKEVVELRKEFLKKIKKMEEVDADRVLKEFKDLLNSY
Regarding B1, the “stoichiometry N” value was found to be 2.
